Measured values as given in US20240279278A1, “NMU RECEPTOR 2 AGONISTS” (Boehringer Ingelheim International GmbH, priority 2023, published 2024).

T1: human neuromedin U receptor 1 (human, UniProt Q9HB89 24-426)
T1 sequence (looked up): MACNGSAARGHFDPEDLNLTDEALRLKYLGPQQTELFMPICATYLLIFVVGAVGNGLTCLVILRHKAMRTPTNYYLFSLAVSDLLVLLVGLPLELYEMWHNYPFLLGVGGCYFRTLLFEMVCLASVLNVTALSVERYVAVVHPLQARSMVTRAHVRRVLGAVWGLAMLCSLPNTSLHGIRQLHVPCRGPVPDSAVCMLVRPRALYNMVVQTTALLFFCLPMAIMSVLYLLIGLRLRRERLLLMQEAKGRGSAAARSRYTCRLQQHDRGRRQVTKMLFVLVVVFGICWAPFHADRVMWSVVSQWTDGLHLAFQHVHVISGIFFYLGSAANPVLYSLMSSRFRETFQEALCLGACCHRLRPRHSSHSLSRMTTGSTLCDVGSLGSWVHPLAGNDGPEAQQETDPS


Experiments:
[1] = cited from earlier work
[2] = target: human neuromedin U receptor 2 (human, UniProt Q9GZQ4 1-415); experiment: cell-based or functional assay
Chain of human neuromedin U receptor 2 (Q9GZQ4 whole entry): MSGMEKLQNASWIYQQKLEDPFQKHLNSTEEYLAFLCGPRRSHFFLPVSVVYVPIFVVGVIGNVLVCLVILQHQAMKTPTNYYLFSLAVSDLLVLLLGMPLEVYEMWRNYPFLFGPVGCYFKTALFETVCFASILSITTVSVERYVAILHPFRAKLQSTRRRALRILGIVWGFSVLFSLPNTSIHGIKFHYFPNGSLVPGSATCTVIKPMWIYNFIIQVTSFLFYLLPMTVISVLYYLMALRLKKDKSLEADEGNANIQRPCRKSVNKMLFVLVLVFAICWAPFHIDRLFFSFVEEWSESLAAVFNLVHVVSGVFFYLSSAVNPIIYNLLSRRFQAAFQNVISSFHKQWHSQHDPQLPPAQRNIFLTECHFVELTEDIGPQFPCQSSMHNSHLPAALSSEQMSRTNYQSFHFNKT

[3] = target: T1, human neuromedin U receptor 1; experiment: cell-based or functional assay

Row | Molecule | EC50 (activity as measured in Example 3) [2] [nM] | EC50 (activity as measured in Example 3) [3] [nM] | half-life after subcutaneous injection [1]
1 | Neuromedin U [native NMU] | – | – | less than 5 min
2 | EEEXXXXXXXXXXXXXYFLXXPRG (HELM PEPTIDE1{[CCCCCCCCCCCCCCCCCC(=O)[*:2]].[gGlu].[gGlu].[gGlu].[Sar].[Sar].[Sar].[Sar].[Sar].[Sar].[Sar].[Sar].[Sar].[Sar].[Sar].[Sar].[O=C(CN1CCN(CCN[*:1])CC1)[*:2]].Y.F.[meL].[Nle].[Orn].P.R.G.[am]}$$$$V2.0; SMILES CCCCCCCCCCCCCCCCCC(=O)N[C@@H](CCC(=O)N[C@@H](CCC(=O)N[C@@H](CCC(=O)N(C)CC(=O)N(C)CC(=O)N(C)CC(=O)N(C)CC(=O)N(C)CC(=O)N(C)CC(=O)N(C)CC(=O)N(C)CC(=O)N(C)CC(=O)N(C)CC(=O)N(C)CC(=O)N(C)CC(=O)NCCN1CCN(CC(=O)N[C@@H](Cc2ccc(O)cc2)C(=O)N[C@@H](Cc2ccccc2)C(=O)N(C)[C@@H](CC(C)C)C(=O)N[C@@H](CCCC)C(=O)N[C@@H](CCCN)C(=O)N2CCC[C@H]2C(=O)N[C@@H](CCCNC(=N)N)C(=O)NCC(N)=O)CC1)C(=O)O)C(=O)O)C(=O)O) [C18A-gGlu3-Sar12-AEPipAc-Tyr-Phe-NMeLeu-Nle-Orn-Pro-Arg-Gly-NH2] | 0.047 | 0.37 | –
3 | EEEXXXXXXXXXXXXXYFLXXPRG (HELM PEPTIDE1{[O=C(O)CCCCCCCCCCCCCCCCC(=O)[*:2]].[gGlu].[gGlu].[gGlu].[Sar].[Sar].[Sar].[Sar].[Sar].[Sar].[Sar].[Sar].[Sar].[Sar].[Sar].[Sar].[O=C(CN1CCN(CCN[*:1])CC1)[*:2]].Y.F.L.[Nle].[Orn].P.R.G.[am]}$$$$V2.0; SMILES CCCC[C@H](NC(=O)[C@H](CC(C)C)NC(=O)[C@H](Cc1ccccc1)NC(=O)[C@H](Cc1ccc(O)cc1)NC(=O)CN1CCN(CCNC(=O)CN(C)C(=O)CN(C)C(=O)CN(C)C(=O)CN(C)C(=O)CN(C)C(=O)CN(C)C(=O)CN(C)C(=O)CN(C)C(=O)CN(C)C(=O)CN(C)C(=O)CN(C)C(=O)CN(C)C(=O)CC[C@H](NC(=O)CC[C@H](NC(=O)CC[C@H](NC(=O)CCCCCCCCCCCCCCCCC(=O)O)C(=O)O)C(=O)O)C(=O)O)CC1)C(=O)N[C@@H](CCCN)C(=O)N1CCC[C@H]1C(=O)N[C@@H](CCCNC(=N)N)C(=O)NCC(N)=O) [C18DA-gGlu3-Sar12-AEPipAc-Tyr-Phe-Leu-Nle-Orn-Pro-Arg-Gly-NH2] | 2.1 | 68 | –
4 | EEEXXXXXXXXXXXXXXXXYFLXXPRG (HELM PEPTIDE1{[O=C(O)CCCCCCCCCCCCCCCCCCC(=O)[*:2]].[gGlu].[gGlu].[gGlu].[Sar].[Sar].[Sar].[Sar].[Sar].[Sar].[Sar].[Sar].[Sar].[Sar].[Sar].[Sar].[Sar].[Sar].[Sar].[O=C(CN1CCN(CCN[*:1])CC1)[*:2]].Y.F.L.[Nle].[Orn].P.R.G.[am]}$$$$V2.0; SMILES CCCC[C@H](NC(=O)[C@H](CC(C)C)NC(=O)[C@H](Cc1ccccc1)NC(=O)[C@H](Cc1ccc(O)cc1)NC(=O)CN1CCN(CCNC(=O)CN(C)C(=O)CN(C)C(=O)CN(C)C(=O)CN(C)C(=O)CN(C)C(=O)CN(C)C(=O)CN(C)C(=O)CN(C)C(=O)CN(C)C(=O)CN(C)C(=O)CN(C)C(=O)CN(C)C(=O)CN(C)C(=O)CN(C)C(=O)CN(C)C(=O)CC[C@H](NC(=O)CC[C@H](NC(=O)CC[C@H](NC(=O)CCCCCCCCCCCCCCCCCCC(=O)O)C(=O)O)C(=O)O)C(=O)O)CC1)C(=O)N[C@@H](CCCN)C(=O)N1CCC[C@H]1C(=O)N[C@@H](CCCNC(=N)N)C(=O)NCC(N)=O) [C20DA-gGlu3-Sar15-AEPipAc-Tyr-Phe-Leu-Nle-Orn-Pro-Arg-Gly-NH2] | 3 | 75 | –

The next lines start with results.

Row | EC50 (activity as measured in Example 3) [2] [nM] | EC50 (activity as measured in Example 3) [3] [nM] | Molecule | half-life after subcutaneous injection [1]
5 | 1.7 | 21 | EEEXXXXXXXXXXXXXXXXYFLXRPRG (HELM PEPTIDE1{[O=C(O)CCCCCCCCCCCCCCCCC(=O)[*:2]].[gGlu].[gGlu].[gGlu].[Sar].[Sar].[Sar].[Sar].[Sar].[Sar].[Sar].[Sar].[Sar].[Sar].[Sar].[Sar].[Sar].[Sar].[Sar].[O=C(CN1CCN(CCN[*:1])CC1)[*:2]].Y.F.L.[Nle].R.P.R.G.[am]}$$$$V2.0; SMILES CCCC[C@H](NC(=O)[C@H](CC(C)C)NC(=O)[C@H](Cc1ccccc1)NC(=O)[C@H](Cc1ccc(O)cc1)NC(=O)CN1CCN(CCNC(=O)CN(C)C(=O)CN(C)C(=O)CN(C)C(=O)CN(C)C(=O)CN(C)C(=O)CN(C)C(=O)CN(C)C(=O)CN(C)C(=O)CN(C)C(=O)CN(C)C(=O)CN(C)C(=O)CN(C)C(=O)CN(C)C(=O)CN(C)C(=O)CN(C)C(=O)CC[C@H](NC(=O)CC[C@H](NC(=O)CC[C@H](NC(=O)CCCCCCCCCCCCCCCCC(=O)O)C(=O)O)C(=O)O)C(=O)O)CC1)C(=O)N[C@@H](CCCNC(=N)N)C(=O)N1CCC[C@H]1C(=O)N[C@@H](CCCNC(=N)N)C(=O)NCC(N)=O) [C18DA-gGlu3-Sar15-AEPipAc-Tyr-Phe-Leu-Nle-Arg-Pro-Arg-Gly-NH2] | –
6 | 0.054 | 0.33 | EEEXXXXXXXXXXXXXXXXYFLXXPRG (HELM PEPTIDE1{[CCCCCCCCCCCCCCCCCCCC(=O)[*:2]].[gGlu].[gGlu].[gGlu].[Sar].[Sar].[Sar].[Sar].[Sar].[Sar].[Sar].[Sar].[Sar].[Sar].[Sar].[Sar].[Sar].[Sar].[Sar].[O=C(CN1CCN(CCN[*:1])CC1)[*:2]].Y.F.[meL].[Nle].[Orn].P.R.G.[am]}$$$$V2.0; SMILES CCCCCCCCCCCCCCCCCCCC(=O)N[C@@H](CCC(=O)N[C@@H](CCC(=O)N[C@@H](CCC(=O)N(C)CC(=O)N(C)CC(=O)N(C)CC(=O)N(C)CC(=O)N(C)CC(=O)N(C)CC(=O)N(C)CC(=O)N(C)CC(=O)N(C)CC(=O)N(C)CC(=O)N(C)CC(=O)N(C)CC(=O)N(C)CC(=O)N(C)CC(=O)N(C)CC(=O)NCCN1CCN(CC(=O)N[C@@H](Cc2ccc(O)cc2)C(=O)N[C@@H](Cc2ccccc2)C(=O)N(C)[C@@H](CC(C)C)C(=O)N[C@@H](CCCC)C(=O)N[C@@H](CCCN)C(=O)N2CCC[C@H]2C(=O)N[C@@H](CCCNC(=N)N)C(=O)NCC(N)=O)CC1)C(=O)O)C(=O)O)C(=O)O) [C20A-gGlu3-Sar15-AEPipAc-Tyr-Phe-NMeLeu-Nle-Orn-Pro-Arg-Gly-NH2] | –
